Assay results as given in IntAct's records for PubMed 31515488.

B1: Elongin-A2 (Homo sapiens), Q8IYF1 (parent)
chain: MAAGSTTLHAVEKLQVRLATKTEPKKLEKYLQKLSALPMTADILAETGIRKTVKRLRKHQHVGDFARDLAARWKKLVLVDRNTRPGPQDPEESASRQRFGEALQDQEKAWGFPENATAPRSPSHSPEHRRTARRTPPGQQRPHPRSHSREPRAERKCPRIAPADSGRYRASPTRTAPLRMPEGPEPAAPGKQPGRGHTHAAQGGPLLCPGCQGQPQGKAVVSHSKGHKSSRQEKRPLCAQGDWHSPTLIREKSCGACLREETPRMPSWASARDRQPSDFKTDKEGGQAGSGQRVPALEEAPDSHQKRPQHSHSNKKRPSLDGRDPGNGTHGLSPEEKEQLSNDRETQEGKPPTAHLDRTSVSSLSEVEEVDMAEEFEQPTLSCEKYLTYDQLRKQKKKTGKSATTALGDKQRKANESKGTRESWDSAKKLPPVQESQSERLQAAGADSAGPKTVPSHVFSELWDLSEAWMQANYDPLSDSDSMTSQAKPEALSSPKFREEAAFPGRRVNAKMPVYSGSRPACQLQVPTLRQQCAQVLRNNPDALSDVGEVPYWVLEPVLEGWRPDQLYRRKKDNHALVRETDELRRNHCFQDFKEEKPQENKTWREQYLRLPDAPEQRLRVMTTNIRSARGNNPNGREAKMICFKSVAKTPYDTSRRQEKSAGDADPENGEIKPASKPAGSSHTPSSQSSSGGGRDSSSSILRWLPEKRANPCLSSSNEHAAPAAKTRKQAAKKVAPLMAKAIRDYKRRFSRR
B2: E3 ubiquitin-protein ligase TRIM69 (Homo sapiens), Q86WT6 (parent)
chain: MEVSTNPSSNIDPGDYVEMNDSITHLPSKVVIQDITMELHCPLCNDWFRDPLMLSCGHNFCEACIQDFWRLQAKETFCPECKMLCQYNNCTFNPVLDKLVEKIKKLPLLKGHPQCPEHGENLKLFSKPDGKLICFQCKDARLSVGQSKEFLQISDAVHFFTEELAIQQGQLETTLKELQTLRNMQKEAIAAHKENKLHLQQHVSMEFLKLHQFLHSKEKDILTELREEGKALNEEMELNLSQLQEQCLLAKDMLVSIQAKTEQQNSFDFLKDITTLLHSLEQGMKVLATRELISRKLNLGQYKGPIQYMVWREMQDTLCPGLSPLTLDPKTAHPNLVLSKSQTSVWHGDIKKIMPDDPERFDSSVAVLGSRGFTSGKWYWEVEVAKKTKWTVGVVRESIIRKGSCPLTPEQGFWLLRLRNQTDLKALDLPSFSLTLTNNLDKVGIYLDYEGGQLSFYNAKTMTHIYTFSNTFMEKLYPYFCPCLNDGGENKEPLHILHPQ

Variants of: B1
Conditions: with traf2_human TRAF2, Q12933
Chain of traf2_human TRAF2, Q12933 (Q12933 whole entry): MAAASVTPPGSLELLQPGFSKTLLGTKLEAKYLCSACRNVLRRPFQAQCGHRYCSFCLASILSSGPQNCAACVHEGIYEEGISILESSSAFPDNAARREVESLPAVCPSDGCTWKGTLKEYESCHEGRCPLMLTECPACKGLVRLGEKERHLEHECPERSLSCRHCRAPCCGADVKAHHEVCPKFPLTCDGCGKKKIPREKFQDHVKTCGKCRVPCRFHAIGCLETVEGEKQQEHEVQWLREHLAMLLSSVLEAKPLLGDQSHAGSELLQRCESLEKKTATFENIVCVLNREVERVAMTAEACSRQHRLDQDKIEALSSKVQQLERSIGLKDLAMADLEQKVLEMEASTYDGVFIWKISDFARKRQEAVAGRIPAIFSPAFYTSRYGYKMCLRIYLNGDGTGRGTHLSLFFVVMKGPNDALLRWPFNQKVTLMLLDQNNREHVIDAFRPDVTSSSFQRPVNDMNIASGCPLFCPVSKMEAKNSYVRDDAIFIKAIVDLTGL

Row | Variant | effect of a mutation on the interaction
1 | C254F | with no effect
2 | A446T | with no effect
3 | T6S | with no effect

Variants of: B2
Conditions: with at5g1_human ATP5MC1, P05496
Chain of at5g1_human ATP5MC1, P05496 (P05496 whole entry): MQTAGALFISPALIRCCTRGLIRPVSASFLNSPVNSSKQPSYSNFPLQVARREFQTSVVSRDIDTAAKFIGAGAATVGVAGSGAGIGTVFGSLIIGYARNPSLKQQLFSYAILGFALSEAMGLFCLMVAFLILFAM

Row | Variant | effect of a mutation on the interaction
4 | Q301H | with no effect
5 | I399F | with no effect
6 | N239K | disrupting interaction strength
7 | A190V | with no effect

Variants of: B2
Conditions: with maga4_human MAGEA4, P43358
Chain of maga4_human MAGEA4, P43358 (P43358 whole entry): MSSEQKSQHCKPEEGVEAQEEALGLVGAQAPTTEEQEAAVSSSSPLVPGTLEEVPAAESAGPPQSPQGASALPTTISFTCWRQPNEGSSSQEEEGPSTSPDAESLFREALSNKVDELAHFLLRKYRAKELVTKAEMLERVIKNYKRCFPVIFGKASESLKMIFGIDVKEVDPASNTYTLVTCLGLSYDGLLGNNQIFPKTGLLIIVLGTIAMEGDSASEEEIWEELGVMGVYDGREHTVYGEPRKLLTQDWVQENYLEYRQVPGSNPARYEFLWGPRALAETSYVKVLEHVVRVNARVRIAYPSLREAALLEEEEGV

Row | Variant | effect of a mutation on the interaction
8 | Q301H | with no effect
9 | I399F | with no effect
10 | N239K | with no effect
11 | A190V | with no effect
